The values that follow come from US8008547B2, “Glyphosate-N-acetyltransferase (GAT) genes” (E.I. duPont de Nemours, priority 2000, dated 2011).

This data set can be described thus: Standard protocol for determination of kcat and KM (continuous spectrophotometric assay, Acetyl CoA hydrolysis at 235 nm). It counts as biochemical. The conditions noted are these: purified protein, about 23° C., 0.2 mM acetyl CoA; for Kcat: 20 mM HEPES pH 6.8, 10% ethylene glycol; for Km: pH 6.8, glyphosate 0.125 to 10 mM. The essentials: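 KM from initial rates over 0.125–10 mM glyphosate, fitted by Lineweaver-Burke transformation of Michaelis-Menten; kcat/KM computed as kcat divided by KM. Continuous spectrophotometric read of acetyl-CoA hydrolysis at 235 nm.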

The Km is the concentration of substrate that gives half-maximal velocity.

Numbering of substitutions follows the chain as printed.

B1: SEQ ID NO: 438: GAT polypeptide (protein)
chain: MIEVKPINAEDTYELRHKILRPNQPIEACMYESDLLRGAFHLGGFYRGKLISIASFHQAEHSDLEGQKQYQLRGMATLEGYRDQKAGSTLIKHAEEILRKRGADMLWCNARTTASGYYKKLGFSEQGEIFDTPPVGPHILMYKRLT
modifications: 0_4B10
notes: GAT polypeptide
Take B1: the Kcat is 3.17 s⁻¹ and the Km was determined as 680 µM.

B2: SEQ ID NO: 442: GAT polypeptide (protein)
chain: B1 chain with E65Q, T89S, K92R, E96Q, M105L, T113S
modifications: 0_5B8
notes: GAT polypeptide
Regarding B2, the Kcat stood at 2.38 s⁻¹ and the Km was found to be 270 µM.

B3: SEQ ID NO: 439: GAT polypeptide (protein)
chain: B1 chain with R47G, E96Q, I97L, T113S, I129V, D131E, R144K, L145I
modifications: 0_5B11
notes: GAT polypeptide
Turning to B3, the Kcat was 3.65 s⁻¹ and the Michaelis-Menten constant (Km) is 540 µM.

B4: SEQ ID NO: 444: GAT polypeptide (protein)
chain: B1 chain with K18R, E65Q, D83E, K92R, E96Q, I97L, M105L, T113S, K120R, I129V
modifications: 0_5D11
notes: GAT polypeptide
For the molecule B4, the Kcat stood at 3.73 s⁻¹ and the Km stood at 670 µM.

B5: SEQ ID NO: 272: GAT polypeptide (protein)
chain: MIEVKPINAEDTYEIRHRILRPNQPLEACKYETDLLGGTFHLGGYYRGKLVSIASFHQAEHSELEGQKQYQLRGMATLEEYREQKAGSTLIRHAEELLRKKGADLLWCNARTSASGYYKKLGFSEQGEVYDIPPVGPHILMYKKLT
modifications: 10_17F6
notes: GAT polypeptide
As for B5, the Kcat amounted to 0.798 s⁻¹ and the Km was 1400 µM.

B6: SEQ ID NO: 424: GAT polypeptide (protein)
chain: B5 chain with K30M, S62P, E80G, E96A, I132T
modifications: 9_15D8
notes: GAT polypeptide
With B6, the Kcat was 1.788 s⁻¹ and the Km was 1100 µM.

B7: SEQ ID NO: 274: GAT polypeptide (protein)
chain: B5 chain with S62P, Q67R, E80G, V135T
modifications: 10_1H3
notes: GAT polypeptide
Consider B7, for which the Kcat came out at 1.27 s⁻¹ and the Km is 1900 µM.

B8: SEQ ID NO: 420: GAT polypeptide (protein)
chain: B5 chain with K30M, V51I, S62P, E80G, V135I
modifications: 7_9C9
notes: GAT polypeptide
Consider B8, for which the Kcat turned out to be 1.08 s⁻¹ and the Km came out at 1000 µM.

B9: SEQ ID NO: 419: GAT polypeptide (protein)
chain: B5 chain with K30M, V51I, S62P, E80G, A86V, E128G
modifications: 7_5C7
notes: GAT polypeptide
As to B9, the Kcat amounted to 0.745 s⁻¹ and the Michaelis-Menten constant (Km) amounted to 1000 µM.

B10: SEQ ID NO: 427: GAT polypeptide (protein)
chain: B5 chain with I19V, K30M, K49E, S62P, E80G, E128G
modifications: 9_20F12
notes: GAT polypeptide
Take B10: the Kcat was 0.63 s⁻¹ and the Km turned out to be 1000 µM.

B11: SEQ ID NO: 430: GAT polypeptide (protein)
chain: B5 chain with F40L, S62P, E80G, E83G, E128G
modifications: 9_23A10
notes: GAT polypeptide
In the case of B11, the Kcat is 0.35 s⁻¹ and the Michaelis constant (Km) was 1000 µM.

B12: SEQ ID NO: 426: GAT polypeptide (protein)
chain: B5 chain with K30M, V51I, S62P, E65V, E80G
modifications: 9_18H2
notes: GAT polypeptide
As to B12, the Kcat was determined as 0.417 s⁻¹ and the Km was found to be 1100 µM.

B13: SEQ ID NO: 425: GAT polypeptide (protein)
chain: B5 chain with K30M, L35M, G37R, T39A, V51I, S62P, R82H, D131N, I132T
modifications: 9_15H3
notes: GAT polypeptide
Regarding B13, the Kcat came out at 1.14 s⁻¹ and the Km came to 1900 µM.

B14: SEQ ID NO: 432: GAT polypeptide (protein)
chain: B5 chain with F40L, V51I, S62P, E80G, L106I
modifications: 9_4H10
notes: GAT polypeptide
On to B14, for which the Kcat worked out at 1.688 s⁻¹ and the Km came out at 1500 µM.

B15: SEQ ID NO: 434: GAT polypeptide (protein)
chain: B5 chain with N8T, V51I, S62P, E80G, V135T
modifications: 9_8H1
notes: GAT polypeptide
For the molecule B15, the Kcat was 1.25 s⁻¹ and the Michaelis constant (Km) was 1700 µM.

B16: SEQ ID NO: 273: GAT polypeptide (protein)
chain: B5 chain with E128G
modifications: 10_18G9
notes: GAT polypeptide
In the case of B16, the Kcat was 0.4 s⁻¹ and the Km came out at 1200 µM.

B17: SEQ ID NO: 429: GAT polypeptide (protein)
chain: B5 chain with S62P, E80G, I132L, V135T
modifications: 9_22B1
notes: GAT polypeptide
As to B17, the Kcat was found to be 0.835 s⁻¹ and the Km turned out to be 1400 µM.

B18: SEQ ID NO: 436: GAT polypeptide (protein)
chain: B5 chain with K30M, R47Q, V51I, Q58N, E80G, A114V, K119E, T146A
modifications: 9C6
notes: GAT polypeptide
For the molecule B18, the Kcat turned out to be 0.217 s⁻¹ and the Michaelis-Menten constant (Km) was determined as 2500 µM.

B19: SEQ ID NO: 428: GAT polypeptide (protein)
chain: B5 chain with K30M, V51I, S62P, E80G, E125D
modifications: 9_21C8
notes: GAT polypeptide
As to B19, the Kcat was determined as 0.477 s⁻¹ and the Km was 1200 µM.

B20: SEQ ID NO: 421: GAT polypeptide (protein)
chain: B5 chain with G37R, T39A, V135T
modifications: 9_13F10
notes: GAT polypeptide
With B20, the Kcat came to 0.578 s⁻¹ and the Km was determined as 700 µM.

B21: SEQ ID NO: 422: GAT polypeptide (protein)
chain: B5 chain with V4A, K30M, S62T
modifications: 9_13F1
notes: GAT polypeptide
In the case of B21, the Kcat turned out to be 0.527 s⁻¹ and the Km was found to be 1100 µM.

B22: SEQ ID NO: 418: GAT polypeptide (protein)
chain: B5 chain with V51I, S62P, E80G
modifications: 7_2D7
notes: GAT polypeptide
Take B22: the Kcat worked out at 0.915 s⁻¹ and the Michaelis-Menten constant (Km) came out at 1100 µM.

B23: SEQ ID NO: 417: GAT polypeptide (protein)
chain: B5 chain with K30M, V51I, E80G, E128G
modifications: 7_2A11
notes: GAT polypeptide
As to B23, the Kcat was determined as 0.78 s⁻¹ and the Michaelis constant (Km) stood at 1100 µM.

B24: SEQ ID NO: 437: GAT polypeptide (protein)
chain: B5 chain with V51I, Q58K, Q67E, K68E, E80G, A114V, V135I
modifications: 9H11
notes: GAT polypeptide
In the case of B24, the Kcat is 0.067 s⁻¹ and the Michaelis constant (Km) worked out at 2300 µM.

B25: SEQ ID NO: 431: GAT polypeptide (protein)
chain: B5 chain with G37R, T39A, V51I, E80G, E96A, V135T
modifications: 9_24F6
notes: GAT polypeptide
Take B25: the Kcat worked out at 0.875 s⁻¹ and the Km was determined as 900 µM.

B26: SEQ ID NO: 435: GAT polypeptide (protein)
chain: B5 chain with T12A, G38S, V51I, S62P
modifications: 9_9H7
notes: GAT polypeptide
On to B26, for which the Kcat came to 0.467 s⁻¹ and the Km amounted to 700 µM.

B27: SEQ ID NO: 433: GAT polypeptide (protein)
chain: B5 chain with K30M, V51I, H57N, S62P, E80G
modifications: 9_4H8
notes: GAT polypeptide
As for B27, the Kcat came out at 0.785 s⁻¹ and the Km amounted to 600 µM.

B28: SEQ ID NO: 423: GAT polypeptide (protein)
chain: B5 chain with E27D, V51I, S62P, E80G
modifications: 9_15D5
notes: GAT polypeptide
On to B28, for which the Kcat amounted to 0.46 s⁻¹ and the Michaelis-Menten constant (Km) stood at 1200 µM.

B29: SEQ ID NO: 440: GAT polypeptide (protein)
chain: MLEVKPINAEDTYELRHRILRPNQPIEACMYETDLLRGAFHLGGFYRGKLISIASFHQAEHSELQGQKQYQLRGMATLEGYRDQKAGSSLIKHAEQLLRKRGADLLWCNARTSASGYYKKLGFSEQGEVFDTPPVGPHILMYKRIT
modifications: 0_5B3
notes: GAT polypeptide
B29: the Kcat was determined as 2.38 s⁻¹ and the Km came to 390 µM.

B30: SEQ ID NO: 446: GAT polypeptide (protein)
chain: B29 chain with L2I, D11E, Q65E, K92R, R101K, D104N, L105M, S113T, V129I
modifications: 0_5D7
notes: GAT polypeptide
For B30, the Kcat came to 4.07 s⁻¹ and the Km is 1100 µM.

B31: SEQ ID NO: 443: GAT polypeptide (protein)
chain: B29 chain with L2I, R18K, I26L, E63G, D83E, L90I, Q96E, L97I, R101K, V129I
modifications: 0_5C4
notes: GAT polypeptide
On to B31, for which the Kcat was 3.42 s⁻¹ and the Km came to 670 µM.

B32: SEQ ID NO: 441: GAT polypeptide (protein)
chain: B29 chain with P6L, I26L, E63D, Q65E, Y81F, Q96E, L97I, D104N
modifications: 0_5B4
notes: GAT polypeptide
B32: the Kcat came out at 3 s⁻¹ and the Km was 600 µM.
